US20160311887A1 (CAMBRIDGE ENTERPRISE, published 2016)
Like-named read-outs stand apart in the source and are kept apart here.

Experiments:
[1] = target: T1, activated Protein C (APC) (human, UniProt P04070 43-197; P04070 212-461); test: ratio of rate constants, APC over fXa
T1 construct: also called human plasma APC

fXa = target: T2, fXa (UniProt P00742 41-179; P00742 235-488); test: pseudo-first-order inhibition kinetics, residual chromogenic activity (S2222)
T2 construct: also called factor Xa
T2 sequence (P00742 41-179 limits assumed, form in doubt, chain 1 of 2): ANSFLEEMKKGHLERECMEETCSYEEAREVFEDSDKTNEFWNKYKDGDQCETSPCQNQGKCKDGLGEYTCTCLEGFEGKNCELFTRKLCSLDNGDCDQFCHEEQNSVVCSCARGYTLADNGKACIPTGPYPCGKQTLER
T2 sequence (P00742 235-488 limits assumed, form in doubt, chain 2 of 2): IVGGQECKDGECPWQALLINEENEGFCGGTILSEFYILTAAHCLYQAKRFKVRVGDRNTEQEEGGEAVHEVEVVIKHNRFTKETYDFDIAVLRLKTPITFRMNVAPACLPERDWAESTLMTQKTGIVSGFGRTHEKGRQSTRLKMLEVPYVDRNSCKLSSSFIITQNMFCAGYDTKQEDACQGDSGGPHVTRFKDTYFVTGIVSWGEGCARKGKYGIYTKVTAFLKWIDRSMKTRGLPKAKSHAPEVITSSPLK

[2] = target: T1, activated Protein C (APC); test: ratio of rate constants, APC over thrombin
TF:fVIIa = TF:fVIIa (UniProt P13726 33-295; P08709 61-466, limits assumed); test: cell-based or functional assay
Sequence of TF:fVIIa (P13726 33-295 limits assumed, chain 1 of 2): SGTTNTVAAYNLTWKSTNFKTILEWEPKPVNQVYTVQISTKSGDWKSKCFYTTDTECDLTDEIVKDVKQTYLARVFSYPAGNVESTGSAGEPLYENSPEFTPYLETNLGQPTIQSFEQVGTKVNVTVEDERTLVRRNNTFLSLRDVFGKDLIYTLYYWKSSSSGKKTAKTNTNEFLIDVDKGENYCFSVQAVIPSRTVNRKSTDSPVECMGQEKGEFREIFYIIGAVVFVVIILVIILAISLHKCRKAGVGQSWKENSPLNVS
Sequence of TF:fVIIa (P08709 61-466 limits assumed, chain 2 of 2): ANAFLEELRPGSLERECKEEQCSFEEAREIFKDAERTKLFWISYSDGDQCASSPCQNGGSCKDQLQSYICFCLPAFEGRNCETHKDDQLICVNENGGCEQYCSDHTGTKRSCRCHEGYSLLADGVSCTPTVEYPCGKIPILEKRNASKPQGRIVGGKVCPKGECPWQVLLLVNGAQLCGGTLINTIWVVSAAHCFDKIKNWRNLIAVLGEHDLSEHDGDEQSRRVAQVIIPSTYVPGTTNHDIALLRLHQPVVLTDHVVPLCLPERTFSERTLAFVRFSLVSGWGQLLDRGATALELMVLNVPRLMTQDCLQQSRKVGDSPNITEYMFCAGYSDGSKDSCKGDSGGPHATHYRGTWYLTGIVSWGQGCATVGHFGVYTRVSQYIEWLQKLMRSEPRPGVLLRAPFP

[3] = target: T1, activated Protein C (APC); test: pseudo-first-order inhibition kinetics, residual chromogenic activity
thrombin [4] = target: T3, thrombin (UniProt P00734 328-622); test: as above
[5] = target: T1, activated Protein C (APC); test: ratio of rate constants, APC over thrombin; remark: listed apart in the source
Method: Standard errors are shown.
(§1) Preliminary second-order rate constants for the inhibition of thrombin and APC by random mutagenesis PCI variants were measured under pseudo first-order conditions using an excess of serpin over protease. Serpin and protease were incubated together for varying lengths of time and the residual activity determined by adding an excess of chromogenic substrate for the protease. Plots of residual protease activity over time gave the observed rate constant kobs. The second-order rate constant, k₂, is the slope of the plot of kobs versus serpin concentration (fitted using a linear regression model). WT and P2KP1′K are shown for comparison. The error shown is the standard error of the slope.

[6] = target: T1, activated Protein C (APC); test: preliminary pseudo-first-order inhibition kinetics, residual chromogenic activity
Method: as §1

thrombin [7] = target: T3, thrombin; test: as above
Method: as §1

T1 sequence (P04070 43-197, chain 1 of 2): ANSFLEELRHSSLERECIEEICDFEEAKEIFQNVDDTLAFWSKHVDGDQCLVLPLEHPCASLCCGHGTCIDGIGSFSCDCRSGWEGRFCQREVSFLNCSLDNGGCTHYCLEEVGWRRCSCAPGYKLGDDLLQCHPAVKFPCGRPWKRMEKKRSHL
T1 sequence (P04070 212-461, chain 2 of 2): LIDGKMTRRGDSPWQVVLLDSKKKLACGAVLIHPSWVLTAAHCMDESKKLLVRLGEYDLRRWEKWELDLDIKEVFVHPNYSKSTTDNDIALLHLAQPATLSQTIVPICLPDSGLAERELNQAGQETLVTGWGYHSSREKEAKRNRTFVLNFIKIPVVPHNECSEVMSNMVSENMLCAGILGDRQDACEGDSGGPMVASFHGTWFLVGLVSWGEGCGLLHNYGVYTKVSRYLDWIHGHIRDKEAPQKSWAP

| Binder | inhibition of APC/fXa [1] | second-order rate constant of inhibition (fXa) | inhibition of APC/thrombin [2] | PT (s), 5 µM serpin (TF:fVIIa) | second-order rate constant of inhibition [3] | second-order rate constant of inhibition (thrombin [4]) | inhibition of APC/thrombin [5] | second-order rate constant of inhibition [6] | second-order rate constant of inhibition (thrombin [7]) |
| --- | --- | --- | --- | --- | --- | --- | --- | --- | --- |
| FL α1AT Pitts C232S P2KP1′N (other, E. coli, purified; also called 3.B2; 2.H5) SDPQGDAAQKTDTSHHDQDHPTFNKITPNLAEFAFSLYRQLAHQSNSTNIFFSPVSIATAFAMLSLGTKADTHDEILEGLNFNLTEIPEAQIHEGFQELLRTLNQPDSQLQLTTGNGLFLSEGLKLVDKFLEDVKKLYHSEAFTVNFGDTEEAKKQINDYVEKGTQGKIVDLVKELDRDTVFALVNYIFFKGKWERPFEVKDTEEEDFHVDQVTTVKVPMMKRLGMFNIQHSKKLSSWVLLMKYLGNATAIFFLPDEGKLQHLENELTHDIITKFLENEDRRSASLHLPKLSITGTYDLKSVLGQLGITKVFSNGADLSGVTEEAPLKLSKAVHKAVLTIDEKGTEAAGAMFLEAIKRNIPPEVKFNKPFVFLMIEQNTKSPLFMGKVVNPTQK | 41.5 fold | 910 M⁻¹ s⁻¹ | 2520 fold | 27.8 s | 37800 M⁻¹ s⁻¹ | 15 M⁻¹ s⁻¹ | – | – | – |
| FL α1AT Pitts C232S P2TP1′N (other, E. coli, purified; also called 4.G9) SDPQGDAAQKTDTSHHDQDHPTFNKITPNLAEFAFSLYRQLAHQSNSTNIFFSPVSIATAFAMLSLGTKADTHDEILEGLNFNLTEIPEAQIHEGFQELLRTLNQPDSQLQLTTGNGLFLSEGLKLVDKFLEDVKKLYHSEAFTVNFGDTEEAKKQINDYVEKGTQGKIVDLVKELDRDTVFALVNYIFFKGKWERPFEVKDTEEEDFHVDQVTTVKVPMMKRLGMFNIQHSKKLSSWVLLMKYLGNATAIFFLPDEGKLQHLENELTHDIITKFLENEDRRSASLHLPKLSITGTYDLKSVLGQLGITKVFSNGADLSGVTEEAPLKLSKAVHKAVLTIDEKGTEAAGAMFLEAITRNIPPEVKFNKPFVFLMIEQNTKSPLFMGKVVNPTQK | – | – | 231 fold | – | 62400 M⁻¹ s⁻¹ | 270 M⁻¹ s⁻¹ | – | – | – |
| FL α1AT Pitts C232S P1′E (other, E. coli, purified; also called P1′.H8; P1′.F10) SDPQGDAAQKTDTSHHDQDHPTFNKITPNLAEFAFSLYRQLAHQSNSTNIFFSPVSIATAFAMLSLGTKADTHDEILEGLNFNLTEIPEAQIHEGFQELLRTLNQPDSQLQLTTGNGLFLSEGLKLVDKFLEDVKKLYHSEAFTVNFGDTEEAKKQINDYVEKGTQGKIVDLVKELDRDTVFALVNYIFFKGKWERPFEVKDTEEEDFHVDQVTTVKVPMMKRLGMFNIQHSKKLSSWVLLMKYLGNATAIFFLPDEGKLQHLENELTHDIITKFLENEDRRSASLHLPKLSITGTYDLKSVLGQLGITKVFSNGADLSGVTEEAPLKLSKAVHKAVLTIDEKGTEAAGAMFLEAIPREIPPEVKFNKPFVFLMIEQNTKSPLFMGKVVNPTQK | – | – | 19.9 fold | – | 2990 M⁻¹ s⁻¹ | 150 M⁻¹ s⁻¹ | – | – | – |
| FL α1AT Pitts C232S P2R (other, E. coli, purified; also called P2.F10; P2.G8) SDPQGDAAQKTDTSHHDQDHPTFNKITPNLAEFAFSLYRQLAHQSNSTNIFFSPVSIATAFAMLSLGTKADTHDEILEGLNFNLTEIPEAQIHEGFQELLRTLNQPDSQLQLTTGNGLFLSEGLKLVDKFLEDVKKLYHSEAFTVNFGDTEEAKKQINDYVEKGTQGKIVDLVKELDRDTVFALVNYIFFKGKWERPFEVKDTEEEDFHVDQVTTVKVPMMKRLGMFNIQHSKKLSSWVLLMKYLGNATAIFFLPDEGKLQHLENELTHDIITKFLENEDRRSASLHLPKLSITGTYDLKSVLGQLGITKVFSNGADLSGVTEEAPLKLSKAVHKAVLTIDEKGTEAAGAMFLEAIRRSIPPEVKFNKPFVFLMIEQNTKSPLFMGKVVNPTQK | 12.8 fold | 4790 M⁻¹ s⁻¹ | 1460 fold | 27.8 s | 61100 M⁻¹ s⁻¹ | 42 M⁻¹ s⁻¹ | – | – | – |
| FL α1AT Pitts C232S P2QP1′K (other, E. coli, purified; also called 4.G4) SDPQGDAAQKTDTSHHDQDHPTFNKITPNLAEFAFSLYRQLAHQSNSTNIFFSPVSIATAFAMLSLGTKADTHDEILEGLNFNLTEIPEAQIHEGFQELLRTLNQPDSQLQLTTGNGLFLSEGLKLVDKFLEDVKKLYHSEAFTVNFGDTEEAKKQINDYVEKGTQGKIVDLVKELDRDTVFALVNYIFFKGKWERPFEVKDTEEEDFHVDQVTTVKVPMMKRLGMFNIQHSKKLSSWVLLMKYLGNATAIFFLPDEGKLQHLENELTHDIITKFLENEDRRSASLHLPKLSITGTYDLKSVLGQLGITKVFSNGADLSGVTEEAPLKLSKAVHKAVLTIDEKGTEAAGAMFLEAIQRKIPPEVKFNKPFVFLMIEQNTKSPLFMGKVVNPTQK | 30.9 fold | 1080 M⁻¹ s⁻¹ | 8790 fold | 27.9 s | 33400 M⁻¹ s⁻¹ | 3.8 M⁻¹ s⁻¹ | – | – | – |
| FL α1AT Pitts C232S P2TP1′Y (other, E. coli, purified; also called 3.A10) SDPQGDAAQKTDTSHHDQDHPTFNKITPNLAEFAFSLYRQLAHQSNSTNIFFSPVSIATAFAMLSLGTKADTHDEILEGLNFNLTEIPEAQIHEGFQELLRTLNQPDSQLQLTTGNGLFLSEGLKLVDKFLEDVKKLYHSEAFTVNFGDTEEAKKQINDYVEKGTQGKIVDLVKELDRDTVFALVNYIFFKGKWERPFEVKDTEEEDFHVDQVTTVKVPMMKRLGMFNIQHSKKLSSWVLLMKYLGNATAIFFLPDEGKLQHLENELTHDIITKFLENEDRRSASLHLPKLSITGTYDLKSVLGQLGITKVFSNGADLSGVTEEAPLKLSKAVHKAVLTIDEKGTEAAGAMFLEAITRYIPPEVKFNKPFVFLMIEQNTKSPLFMGKVVNPTQK | – | – | 248 fold | – | 5700 M⁻¹ s⁻¹ | 23 M⁻¹ s⁻¹ | – | – | – |
| FL α1AT Pitts C232S P2KP1′H (other, E. coli, purified; also called 1.A12) SDPQGDAAQKTDTSHHDQDHPTFNKITPNLAEFAFSLYRQLAHQSNSTNIFFSPVSIATAFAMLSLGTKADTHDEILEGLNFNLTEIPEAQIHEGFQELLRTLNQPDSQLQLTTGNGLFLSEGLKLVDKFLEDVKKLYHSEAFTVNFGDTEEAKKQINDYVEKGTQGKIVDLVKELDRDTVFALVNYIFFKGKWERPFEVKDTEEEDFHVDQVTTVKVPMMKRLGMFNIQHSKKLSSWVLLMKYLGNATAIFFLPDEGKLQHLENELTHDIITKFLENEDRRSASLHLPKLSITGTYDLKSVLGQLGITKVFSNGADLSGVTEEAPLKLSKAVHKAVLTIDEKGTEAAGAMFLEAIKRHIPPEVKFNKPFVFLMIEQNTKSPLFMGKVVNPTQK | 46.5 fold | 620 M⁻¹ s⁻¹ | – | 27.4 s | 28800 M⁻¹ s⁻¹ | – | – | – | – |
| FL α1AT Pitts C232S P1′R (other, E. coli, purified; also called P1′.A11) SDPQGDAAQKTDTSHHDQDHPTFNKITPNLAEFAFSLYRQLAHQSNSTNIFFSPVSIATAFAMLSLGTKADTHDEILEGLNFNLTEIPEAQIHEGFQELLRTLNQPDSQLQLTTGNGLFLSEGLKLVDKFLEDVKKLYHSEAFTVNFGDTEEAKKQINDYVEKGTQGKIVDLVKELDRDTVFALVNYIFFKGKWERPFEVKDTEEEDFHVDQVTTVKVPMMKRLGMFNIQHSKKLSSWVLLMKYLGNATAIFFLPDEGKLQHLENELTHDIITKFLENEDRRSASLHLPKLSITGTYDLKSVLGQLGITKVFSNGADLSGVTEEAPLKLSKAVHKAVLTIDEKGTEAAGAMFLEAIPRRIPPEVKFNKPFVFLMIEQNTKSPLFMGKVVNPTQK | – | – | 194 fold | – | 132000 M⁻¹ s⁻¹ | 680 M⁻¹ s⁻¹ | – | – | – |
| FL α1AT Pitts C232S P2RP1′C (other, E. coli, purified; also called 1.B11) SDPQGDAAQKTDTSHHDQDHPTFNKITPNLAEFAFSLYRQLAHQSNSTNIFFSPVSIATAFAMLSLGTKADTHDEILEGLNFNLTEIPEAQIHEGFQELLRTLNQPDSQLQLTTGNGLFLSEGLKLVDKFLEDVKKLYHSEAFTVNFGDTEEAKKQINDYVEKGTQGKIVDLVKELDRDTVFALVNYIFFKGKWERPFEVKDTEEEDFHVDQVTTVKVPMMKRLGMFNIQHSKKLSSWVLLMKYLGNATAIFFLPDEGKLQHLENELTHDIITKFLENEDRRSASLHLPKLSITGTYDLKSVLGQLGITKVFSNGADLSGVTEEAPLKLSKAVHKAVLTIDEKGTEAAGAMFLEAIRRCIPPEVKFNKPFVFLMIEQNTKSPLFMGKVVNPTQK | – | – | 722 fold | – | 24600 M⁻¹ s⁻¹ | 34 M⁻¹ s⁻¹ | – | – | – |
| A22 2.B10 PCI (P4SP2LP1′K) (other, As A22 WT PCI) APSSRRDFTFDLYRALASAAPSQNIFFSPVSISMSLAMLSLGAGSSTKMQILEGLGLNLQKSSEKELHRGFQQLLQELNQPRDGFQLSLGNALFTDLVVDLQDTFVSAMKTLYLADTFPTNFRDSAGAMKQINDYVAKQTKGKIVDLLKNLDSNAVVIMVNYIFFKAKWETSFNHKGTQEQDFYVTSETVVRVPMMSREDQYHYLLDRNLSCRVVGVPYQGNATALFILPSEGKMQQVENGLSEKTLRKWLKMFKKRQLELYLPKFSIEGSYQLEKVLPSLGISNVFTSHADLSGISNHSNIQVSEMVHKAVVEVDESGTRAAAATGTISTLRKARLNSQRLVFNRPFLMFIVDNNILFLGKVNRP | – | – | – | – | – | – | 26.9 fold | 430 M⁻¹ s⁻¹ | 16 M⁻¹ s⁻¹ |
